Reference: WO2024019110A1 (dated 2024)

B1: recombinant Fab protein of antibody No. 2 (Fab, V domains shown)
VH: EVQLVESGGGVVQPGRSLRLSCAASGFKFSKFAMHWVRQAPGKGPEWVAVISYDGNQYHSADSVKGRFTISRDNSFNTLYLQMNSLGPEDTAVYYCARDGPDTSGYYANIYFDFWGQGTLVTVSS
VL: QSVLTQPPSVSGAPGQRVTISCTGSSSNIGAGYDVHWYQQLPGRAPKLLIFDNNNRPSGVPDRFSGSKSGTSASLAITGLQTEDEAYYYCQSYDNSLILAVFGGGTKVTVL
B2: recombinant Fab protein of antibody No. 6 (Fab, V domains shown)
VH: QVQLVQSGPEVKKPGTSVKVSCKASGFTFYYSAVQWVRQARGQRLEWLGWMAVGSGKANYAQKFQERLTLTRDMSTSTAYMELSSLRSEDTAVYYCAAPNCTGGSCYDGFNLWGQGTVVTVSS
VL: EIVLTQSPGTLSLSPGDRAILSCRASQTVNSNYLAWYQQKPGQAPRLLIYGTSSRATGIPDRFSGSGSGTDFTLTISRLEPEDFAVYYCQQYGSSPWLFGQGTKVEIK
B3: recombinant Fab protein of antibody No. 5 (Fab, V domains shown)
VH: EVQLVESGGGLVQPGGSLRLSCAASGFTFYSYWMTWVRQAPGKGLEWVANIKHDESESHYVDSVRGRFTISRDNAKNSVYLQMKGLRAEDTAVYYCARDGGYNILTAYYHAPSYWGQGTLVTVSS
VL: QSALTQPASVSGSPGQSITISCTGTSSDVGGYNFVSWYRQYPGKAPQLMIYDVSRRPSGDSDRFSGSKSGNTASLTISGLQAEDEAEYHCSSYTGRSPYVVFGGGTKVTVL
B4: recombinant Fab protein of antibody No. 7 (Fab, V domains shown)
VH: EVQLLESGGGLVQPGGSLRLSCAASGFTFSRYALSWVRQAPGKGLEWVSAISGAAITTYYADSVKGRFTISRDDSRNTLFMQMDSLRAEDTAVYYCAKGDYYDSSGYLAEYFPHWGQGTLVTVSS
VL: SYELTQPPSVSVSPGQTARITCFADALPKQHAYWYQQKAGQAPVLVIFKDTERPSGIPKRFSGSRSGATVTLTISGVQAEDEADYYCQSTDISGVLFGGGTKLTVL

Target: Wuhan strain RBD (Ancestral), biotinylated (SARS-CoV-2 (Wuhan strain), UniProt P0DTC2 331-529)
Test: BLI (Octet), biotinylated RBD on streptavidin biosensor, Fab in solution

| Binder | Kd |
| --- | --- |
| B1 | ≤ 100 nM |
| B2 | ≤ 100 nM |
| B3 | ≤ 100 nM |
| B4 | ≤ 100 nM |
